Source: US20250144205A1, “COMPOSITIONS AND METHODS FOR TREATING INFECTIOUS DISEASES” (priority 2022, published 2025)

Legend:
rSARS-CoV-2/mCherry-Nluc = format: in vivo, K18 hACE2 transgenic mice; details: for virus titration in lungs (viral titers by plaque assay): 2.5 mg/kg i.p. once daily, compared to the mock groups, FIG. 8A; for body weight and survival: mouse, in vivo
[1] = test system: TSE-induced lung injury (TSE-LI); assay: chronic tobacco smoke exposure induced lung injury (TSE-LI) in wild-type mice; format: in vivo; details: for MUC5AC (M5Ac) expression (lung mRNA by qPCR, IHC) / FOXA2 mRNA (qPCR) / surfactant protein-C (SP-C) mRNA (qPCR): WT mice with TSE-LI, 2.5 mg/kg IP 5 days a week for 4 weeks; for MUC5AC (M5Ac) expression (lung mRNA by qPCR, IHC): FIG. 12A, 12D; for FOXA2 mRNA (qPCR): FIG. 12B; for surfactant protein-C (SP-C) mRNA (qPCR): FIG. 12C; for chronic TS exposure (TSE) induced lung injury (TSE-LI): WT mice, 2.5 mg/kg IP 5 days a week for 4 weeks after 16 weeks TSE
Description: Recombinant full-length U5a protein (U5a^FL), extracellular domain of U5a^FL (U5a^ECD) and U5a^ECD-specific monoclonal antibody (U5a^mAb, the 17C9 1 anti-U5a antibody comprising the sequences of SEQ ID NOs. 204 and 211) mitigated chronic TS exposure (TSE) induced lung injury (TSE-LI) in wild-type (WT) mice. WT mice were kept in ambient AIR or exposed to tobacco smoke (TSE) for 4 h/day 5 days a week. After 16 weeks, WT mice with TSE-LI were left untreated (None) or treated with 2.5 mg/kg of U5a^FL, U5a^ECD and U5amAb 5 days a week for 4 weeks by IP injection. Total lung RNA were analyzed for MUC5AC (M5Ac) (FIG. 12A), FOXA2 (FIG. 12B) and surfactant protein-C(SP-C) (FIG. 12C) mRNA by qPCR. Lung sections of mice treated as in FIG. 12A were subjected to IHC analysis for M5Ac (FIG. 12D). We found increased expression of U5a in AECs and ATII cells in lungs of patients with COPD and mice with TSE-LI. […] In addition, increased surfactant protein-C(SP-C) indicates improved survival of ATII cells, which is otherwise reduced due to increased TSE-induced senescence and apoptosis of ATII cells seen in mice with TSE-LI left untreated.

B1: M^9ECD: extracellular domain (ECD) fragment of recombinant M9 (MEGF9); ECD of MEGF9 given as SEQ ID NO: 102 (protein, listed as Homo sapiens)
chain: MGWSCIILFLVATATGVHSAAVASAASAGNVTGGGGAAGQVDASPGPGLRGEPSHPFPRATAPTAQAPRTGPPRATVHRPLAATSPAQSPETTPLWATAGPSSTTFQAPLGPSPTTPPAAERTSTTSQAPTRPAPTTLSTTTGPAPTTPVATTVPAPTTPRTPTPDLPSSSNSSVLPTPPATEAPSSPPPGHQWPVAKMPQKYLGKYACESNLKSKYLPLTQPVMNLRVSEAVKTEYVCNCSVVGSLNVNRCNQTTGQCECRPGYQGLHCETCKEGFYLNYTSGLCQPCDCSPHGALSIPCNSSGKCQCKVGVIGSICDRCQDGYYGFSKNGCLPCQCNNRSASCDALTGACLNCQENSKGNHCEECKEGFYQSPDATKECLRCPCSAVTSTGSCSIKSSELEPECDQCKDGYIGPNCNKCENGYYNFDSICRKCQCHGHVDPVKTPKICKPESGECINCLHNTTGFWCENCLEGYVHDLEGNCIKKEVILPTPEGSTILVSNASLTTSVPTPVINSTFTPTTLQTIFSVSTSENSTSALADVSWTQFN
virus titration in lungs (viral titers by plaque assay) (rSARS-CoV-2/mCherry-Nluc): clear trend of decreased viral titers
body weight and survival (rSARS-CoV-2/mCherry-Nluc): remarkable improvement

B2: U5a^mAb: U5a^ECD-specific monoclonal antibody, the 17C9 1 anti-U5a antibody comprising the sequences of SEQ ID NOs. 204 and 211 (antibody)
heavy: QVQLQQPGAELVKPGASVKMSCKASGYTFTSYWITWVKQRPGQGLEWIGDIYPGSGSTTYNEKFKSKATLTVDTSSSTAYMQLSSLTSEDSAVYYCARRHYGSSSAWFAYWGQGTLVTVSAAKTTPPSVYPLAPGSAAQTNSMVTLGCLVKGYFPEPVTVTWNSGSLSSGVHTFPAVLQSDLYTLSSSVTVPSSTWPSQTVTCNVAHPASSTKVDKKIVPRDCGCKPCICTVPEVSSVFIFPPKPKDVLTITLTPKVTCVVVDISKDDPEVQFSWFVDDVEVHTAQTKPREEQINSTFRSVSELPIMHQDWLNGKEFKCRVNSAAFPAPIEKTISKTKGRPKAPQVYTIPPPKEQMAKDKVSLTCMITNFFPEDITVEWQWNGQPAENYKNTQPIMDTDGSYFVYSKLNVQKSNWEAGNTFTCSVLHEGLHNHHTEKSLSHSPGK
light: DIQMTQTTSSLSASLGDRVTISCSASQGIRNYLNWYQQKPDGTVKLLIYYTSSLHSGVPSRFSGSGSGTDYSLTISNLEPEDIATYYCQQYSKLPFTFGSGTKLEIKRADAAPTVSIFPPSSEQLTSGGASVVCFLNNFYPKDINVKWKIDGSERQNGVLNSWTDQDSKDSTYSMSSTLTLTKDEYERHNSYTCEATHKTSTSPIVKSFNRNEC
MUC5AC (M5Ac) expression (lung mRNA by qPCR, IHC) [1]: significantly inhibits
FOXA2 mRNA (qPCR) [1]: inducing
surfactant protein-C (SP-C) mRNA (qPCR) [1]: increased
chronic TS exposure (TSE) induced lung injury (TSE-LI) [1]: mitigated

B3: M9^FL: recombinant full length MEGF9 (multiple EGF-like-domains-9); full-length human MEGF9 is SEQ ID NO: 1 (protein, listed as Homo sapiens)
chain: MNGGAERAMRSLPSLGGLALLCCAAAAAAAAVASAASAGNVTGGGGAAGQVDASPGPGLRGEPSHPFPRATAPTAQAPRTGPPRATVHRPLAATSPAQSPETTPLWATAGPSSTTFQAPLGPSPTTPPAAERTSTTSQAPTRPAPTTLSTTTGPAPTTPVATTVPAPTTPRTPTPDLPSSSNSSVLPTPPATEAPSSPPPEYVCNCSVVGSLNVNRCNQTTGQCECRPGYQGLHCETCKEGFYLNYTSGLCQPCDCSPHGALSIPCNSSGKCQCKVGVIGSICDRCQDGYYGFSKNGCLPCQCNNRSASCDALTGACLNCQENSKGNHCEECKEGFYQSPDATKECLRCPCSAVTSTGSCSIKSSELEPECDQCKDGYIGPNCNKCENGYYNFDSICRKCQCHGHVDPVKTPKICKPESGECINCLHNTTGFWCENCLEGYVHDLEGNCIKKEVILPTPEGSTILVSNASLTTSVPTPVINSTFTPTTLQTIFSVSTSENSTSALADVSWTQFNIIILTVIIIVVVLLMGFVGAVYMYREYQNRKLNAPFWTIELKEDNISFSSYHDSIPNADVSGLLEDDGNEVAPNGQLTLTTPIHNYKA
virus titration in lungs (viral titers by plaque assay) (rSARS-CoV-2/mCherry-Nluc): clear trend of decreased viral titers
body weight and survival (rSARS-CoV-2/mCherry-Nluc): remarkable improvement

B4: U5a^FL: Recombinant full-length U5a protein (uncoordinated receptor 5A); full-length human UNC5A is SEQ ID NO: 5 (protein, listed as Homo sapiens)
chain: MAVRPGLWPALLGIVLAAWLRGSGAQQSATVANPVPGANPDLLPHFLVEPEDVYIVKNKPVLLVCKAVPATQIFFKCNGEWVRQVDHVIERSTDGSSGLPTMEVRINVSRQQVEKVFGLEEYWCQCVAWSSSGTTKSQKAYIRIAYLRKNFEQEPLAKEVSLEQGIVLPCRPPEGIPPAEVEWLRNEDLVDPSLDPNVYITREHSLVVRQARLADTANYTCVAKNIVARRRSASAAVIVYVDGSWSPWSKWSACGLDCTHWRSRECSDPAPRNGGEECQGTDLDTRNCTSDLCVHTASGPEDVALYVGLIAVAVCLVLLLLVLILVYCRKKEGLDSDVADSSILTSGFQPVSIKPSKADNPHLLTIQPDLSTTTTTYQGSLCPRQDGPSPKFQLTNGHLLSPLGGGRHTLHHSSPTSEAEEFVSRLSTQNYFRSLPRGTSNMTYGTFNFLGGRLMIPNTGISLLIPPDAIPRGKIYEIYLTLHKPEDVRLPLAGCQTLLSPIVSCGPPGVLLTRPVILAMDHCGEPSPDSWSLRLKKQSCEGSWEDVLHLGEEAPSHLYYCQLEASACYVFTEQLGRFALVGEALSVAAAKRLKLLLFAPVACTSLEYNIRVYCLHDTHDALKEVVQLEKQLGGQLIQEPRVLHFKDSYHNLRLSIHDVPSSLWKSKLLVSYQEIPFYHIWNGTQRYLHCTFTLERVSPSTSDLACKLWVWQVEGDGQSFSINFNITKDTRFAELLALESEAGVPALVGPSAFKIPFLIRQKIISSLDPPCRRGADWRTLAQKLHLDSHLSFFASKPSPTAMILNLWEARHFPNGNLSQLAAAVAGLGQPDAGLFTVSEAEC
MUC5AC (M5Ac) expression (lung mRNA by qPCR, IHC) [1]: significantly inhibits
FOXA2 mRNA (qPCR) [1]: inducing
surfactant protein-C (SP-C) mRNA (qPCR) [1]: increased
chronic TS exposure (TSE) induced lung injury (TSE-LI) [1]: mitigated
